Experimental findings from patent US20220251159A1 are described below.

For this experiment, the target named is fluorescently labeled WTp53DBD (MST assay) (UniProt P04637). The experiment in a line: MST; FIG. 3D; myristoylated.
fluorescently labeled WTp53DBD (MST assay), sequence (P04637 94-312): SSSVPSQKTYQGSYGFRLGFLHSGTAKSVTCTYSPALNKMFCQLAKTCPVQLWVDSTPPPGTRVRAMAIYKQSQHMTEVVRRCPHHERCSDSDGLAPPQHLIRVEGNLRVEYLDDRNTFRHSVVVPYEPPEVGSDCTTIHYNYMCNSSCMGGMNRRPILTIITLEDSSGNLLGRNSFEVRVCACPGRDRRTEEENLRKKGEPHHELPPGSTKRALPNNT

Substance pCAP-402 myr-HSTPHPD yielded a Kd of 30 µM. That is a double-digit micromolar value.
